Experimental findings from patent publication US20250122482A1 are described below.

In this assay the target is mouse-TfR Fab (8D3) fused to SpyCatcher. The experiment in a line: cell-based or functional assay.

Substance “soluble SpyTag peptide (peptide; modification not given; by the resolver: SpyCatcher is fused to one Fab chain and forms an isopeptide bond with SpyTag, whether soluble or on the capsid)” showed a cross conjugation signal (luciferase, transduction assay on mTfR+HEK293) (log reduction) of 2.
